# In PMC13371181, “A paracrine-to-autocrine shunt of GREM1 fuels colorectal cancer metastasis via ACVR1C” (Molecular Cancer, 2026):
# “Also recorded” adds a separate entry of the source.
# T1: His-tagged full-length GREM1 (recombinant human GREM1-His) (human, UniProt O60565 25-184, red fluorescent label (NanoTemper, MO-L011) in the MST assays)
# T1 construct: also called recombinant GREM1; rhGREM1; source: bought: R&D, 5190-GR
# T1 sequence (looked up): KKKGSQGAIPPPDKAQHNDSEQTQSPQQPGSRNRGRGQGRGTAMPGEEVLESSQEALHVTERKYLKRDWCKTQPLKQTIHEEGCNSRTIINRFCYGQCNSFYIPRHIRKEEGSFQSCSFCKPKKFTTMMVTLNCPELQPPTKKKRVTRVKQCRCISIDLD
# Assays:
# ACVR1C-ECD = test: MST binding of ACVR1C-ECD-Fc to GREM1-His or ACTIVIN B-His; parameters: species or system human; settings: Monolith NT.115, ACVR1C-ECD-Fc 0–27.5 µM vs 50 nM red-fluorescently labeled His-protein, PBS pH 7.4, premium capillaries, n = 3 independent experiments, mean ± s.e.m.
# Source text: Expi293F cells were transfected with a pcDNA3.4-ACVR1C-ECD-Fc and pcDNA3.4-ACVR1C-ECD-Fc-double mutant (E85A/T101A) expression vector to produce the target protein, which was subsequently purified using a Protein G column. Briefly, the coding sequence (CDS) of the human ACVR1C extracellular domain (ACVR1C-ECD, NM_145259.3, residues 1–113) fused to an Fc tag was cloned into the pcDNA3.4 vector. Expi293F cells were transfected with this construct, the supernatant was harvested 5 days post transfection.
# MST was carried out on a Monolith NT.115 instrument (NanoTemper Technologies GmbH, MO-L011). To evaluate ACVR1C-ECD or ACVR1C peptide or ACVR1C-ECD-double mutant (E85A/T101A) binding to GREM1-His or ACTIVIN B-His, an increasing concentration of purified ACVR1C-ECD-Fc protein (0–27.5 µM) or ACVR1C peptide (0–2.3 µM) or ACVR1C-ECD-double mutant (0–27.5 µM) was incubated with 50 nM red-fluorescently labeled (NanoTemper Technologies GmbH, MO-L011) GREM1-His protein (R&D, 5190-GR) or ACTIVIN B-His protein (SinoBiological, 10814-H08H). Experiments were carried out in a PBS buffer pH 7.4 using premium capillaries (NanoTemper Technologies GmbH, MO-K025).
# FGFR1 (Homo sapiens) = FGFR1 (Homo sapiens) (UniProt P11362); settings: cited from earlier work
# Chain of FGFR1 (Homo sapiens) (P11362 22-376): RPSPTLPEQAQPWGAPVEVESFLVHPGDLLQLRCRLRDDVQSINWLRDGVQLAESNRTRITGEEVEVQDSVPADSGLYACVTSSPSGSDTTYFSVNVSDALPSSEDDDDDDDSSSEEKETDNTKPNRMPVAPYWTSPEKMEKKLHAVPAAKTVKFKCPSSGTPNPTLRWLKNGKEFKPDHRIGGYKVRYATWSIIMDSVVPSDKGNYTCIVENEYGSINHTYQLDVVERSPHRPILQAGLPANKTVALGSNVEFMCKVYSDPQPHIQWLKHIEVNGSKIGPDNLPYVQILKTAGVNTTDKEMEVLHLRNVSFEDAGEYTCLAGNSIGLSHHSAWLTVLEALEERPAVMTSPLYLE
# [1] = biological target: T1, His-tagged full-length GREM1 …; test: MST; Monolith NT.115; 50 nM red-fluorescently labelled GREM1-His or ACTIVIN B-His, unlabelled partner titrated (ACVR1C-ECD-Fc or double mutant 0–27.5 µM, ACVR1C peptide 0–2.3 µM); PBS pH 7.4; n = 3; settings: both partners purified
# ACTIVIN B-His = ACTIVIN B-His (UniProt P09529); test: as above
# ACVR1C = test: Co-immunoprecipitation of GREM1 and ACVR1C; format: binding, human; settings: co-IP, truncation or point mutants, HCT116 cells
# Description: HCT116 cells were transfected with the indicated plasmids and lysed in NP40 lysis buffer (Beyotime, P0013F) supplemented with protease inhibitor cocktail (Thermo, 78446). Lysates were incubated with the indicated Anti-Flag nanobody magarose beads (Ktsm-life, KTSM1338), Anti-HA nanobody magarose beads (Ktsm-life, KTSM1335) or Anti-GFP nanobody magarose beads (Ktsm-life, KTSM1334) overnight at 4 °C. The protein complex was washed four times with the NP40 lysis buffer, eluted with 1×loading buffer (Beyotime, P0015) by boiling for 5 min, followed by mass spectrometry and immunoblotting with the indicated antibodies.
# Protein was extracted from the cells with RIPA buffer (Beyotime, P0018) or NP40 lysis buffer (Beyotime, P0013F) and separated by SDS-PAGE, and transferred to polyvinylidene difluoride membranes. Primary antibodies against GREM1 (1:1,000, SinoBiological, 50016-R117), ACVR1C (1:1,000, Thermo, PA587475), Flag-tag (1:1,000, CST, 14793), HA-tag (1:1,000, CST, 3724), E-Cadherin (1:1,000, CST, 3195), β-Catenin (1:1,000, CST, 8480), ZEB1 (1:1,000, CST, 3396), Snail (1:1,000, CST, 3879), SMAD2/3 (1:1,000, CST, 8685), p-SMAD2/3 (1:1,000, CST, 8828), SMAD1 (1:1,000, CST, 6944), p-SMAD1/5/9 (1:1,000, CST, 13820), TGFβ (1:1,000, CST, 3709), TGFβR1 (0.3 µg/mL, R&D, AF3025), β-actin (1:5,000, Beyotime, AF0003) and GAPDH (1:5,000, Beyotime, AF0006) were used in this study. Peroxidase-conjugated secondary antibody (1:10,000, Cell Signaling Technology, 7074, 7076) was used and signal was visualized using an enhanced chemiluminescence assay (ECL, Thermo), according to the manufacturer’s protocol. Band intensity was quantified using Fiji (ImageJ) by grayscale analysis.
# [2] = test system: CRC cells (SW480, HCT116, and MC38); test: GREM1 withdrawal assay, RT–qPCR and immunoblot; format: cell-based, human (SW480, mouse (MC38); settings: rhGREM1 or rmGrem1 200 ng/mL 24 h, then GREM1-free medium 2 and 4 days
# Description: To determine whether tumor cells that have acquired signaling autonomy can sustain GREM1 expression in the absence of external stimulation, we performed a GREM1 withdrawal assay. CRC cells (SW480, HCT116, and MC38) were first pulsed with rhGREM1 or recombinant mouse GREM1 (rmGrem1) for 24 h to initiate the signaling response. The medium containing rhGREM1 or rmGrem1 was then thoroughly removed, replaced with fresh GREM1-free medium, and the cells were cultured for an additional 4 days. […] This persistent, self-sustaining expression supports our conclusion that the initial rhGREM1 or rmGrem1 stimulation triggers a positive feedback loop of GREM1 transcription within CRC cells.
# Protein was extracted from the cells with RIPA buffer (Beyotime, P0018) or NP40 lysis buffer (Beyotime, P0013F) and separated by SDS-PAGE, and transferred to polyvinylidene difluoride membranes. […] Band intensity was quantified using Fiji (ImageJ) by grayscale analysis.
# Total RNA was extracted using Trizol reagent (Invitrogen, 15596026). […] The SYBR Green Premix Pro Taq HS qPCR Kit (Accurate Biology, AG11701) was then used to quantify mRNA expression according to the manufacturer’s instructions. All results were calculated using the 2^−ΔΔCt method. […]
molecule,measurement,setting,value
"ACTIVIN B: a known ligand of ACVR1C; ACTIVIN B-His protein (SinoBiological, 10814-H08H)",Kd,ACVR1C-ECD,854 ± 127 nM
GREM1 (from UniProt O60565),Kd,FGFR1 (Homo sapiens),10.6 nM
"TECCFTDFCNNITLHLPTA (peptide, UniProt Q8NER5 84-102, looked up, ACVR1C, human, residues 84–102) [ACVR1C peptide (amino acid residues 84–102 of ACVR1C)]",Kd,[1],92.3 nM
"Fc-tagged ACVR1C extracellular domain (ACVR1C-ECD, AA1–113) (Fc fusion, human, UniProt Q8NER5-1 21-113, looked up, signal peptide in the construct; Vector pcDNA3.4; also called ACVR1C-ECD-Fc; recombinant human ACVR1C-ECD and Fc chimera protein; source: Expi293F, transfected, purified from supernatant (Protein G column, ion exchange)) ELSPGLKCVCLLCDSSNFTCQTEGACWASVMLTNGKEQVIKSCVSLPELNAQVFCHSSNNVTKTECCFTDFCNNITLHLPTASPNAPKLGPME",Kd,[1],67.7 nM
same,Kd,ACTIVIN B-His,854 nM
"Q101A/T102A/T112A/N115A quadruple mutation in GREM1: GREM1 point mutant (protein, left off: HA, end not stated, state not stated | mCherry, end not stated, state not stated, GREM1 point mutant) KKKGSQGAIPPPDKAQHNDSEQTQSPQQPGSRNRGRGQGRGTAMPGEEVLESSQEALHVTERKYLKRDWCKTQPLKAAIHEEGCNSRAIIARFCYGQCNSFYIPRHIRKEEGSFQSCSFCKPKKFTTMMVTLNCPELQPPTKKKRVTRVKQCRCISIDLD",effect of deletion or mutation on GREM1–ACVR1C interaction,ACVR1C,significantly abrogated the GREM1–ACVR1C interaction
same,effect of deletion or mutation on GREM1–ACVR1C interaction,ACVR1C; listed as AA101/102/112/115 mutant (M3) of GREM1,impaired
"rmGrem1: recombinant mouse GREM1 (protein, UniProt O70326 25-184, looked up) Gremlin-1: KKKGSQGAIPPPDKAQHNDSEQTQSPPQPGSRTRGRGQGRGTAMPGEEVLESSQEALHVTERKYLKRDWCKTQPLKQTIHEEGCNSRTIINRFCYGQCNSFYIPRHIRKEEGSFQSCSFCKPKKFTTMMVTLNCPELQPPTKKKRVTRVKQCRCISIDLD",endogenous GREM1 expression after withdrawal,[2],not only maintained but in some cases further increased even after the withdrawal of exogenous GREM1; also recorded: maintained elevated endogenous GREM1 expression even after withdrawal of exogenous GREM1
"E85A: ACVR1C single mutant (protein, UniProt Q8NER5 21-493, looked up, variant E85A) Activin receptor type-1C: ELSPGLKCVCLLCDSSNFTCQTEGACWASVMLTNGKEQVIKSCVSLPELNAQVFCHSSNNVTKTACCFTDFCNNITLHLPTASPNAPKLGPMELAIIITVPVCLLSIAAMLTVWACQGRQCSYRKKKRPNVEEPLSECNLVNAGKTLKDLIYDVTASGSGSGLPLLVQRTIARTIVLQEIVGKGRFGEVWHGRWCGEDVAVKIFSSRDERSWFREAEIYQTVMLRHENILGFIAADNKDNGTWTQLWLVSEYHEQGSLYDYLNRNIVTVAGMIKLALSIASGLAHLHMEIVGTQGKPAIAHRDIKSKNILVKKCETCAIADLGLAVKHDSILNTIDIPQNPKVGTKRYMAPEMLDDTMNVNIFESFKRADIYSVGLVYWEIARRCSVGGIVEEYQLPYYDMVPSDPSIEEMRKVVCDQKFRPSIPNQWQSCEALRVMGRIMRECWYANGAARLTALRIKKTISQLCVKEDCKA",effect of deletion or mutation on GREM1–ACVR1C interaction,ACVR1C,significantly abrogated the GREM1–ACVR1C interaction
same,effect of deletion or mutation on GREM1–ACVR1C interaction,ACVR1C; listed as AA85 mutant (M2),impaired
"T101A: ACVR1C single mutant (protein, left off: Flag, end not stated, state not stated | GFP, end not stated, state not stated, ACVR1C single mutant) ELSPGLKCVCLLCDSSNFTCQTEGACWASVMLTNGKEQVIKSCVSLPELNAQVFCHSSNNVTKTECCFTDFCNNITLHLPAASPNAPKLGPMELAIIITVPVCLLSIAAMLTVWACQGRQCSYRKKKRPNVEEPLSECNLVNAGKTLKDLIYDVTASGSGSGLPLLVQRTIARTIVLQEIVGKGRFGEVWHGRWCGEDVAVKIFSSRDERSWFREAEIYQTVMLRHENILGFIAADNKDNGTWTQLWLVSEYHEQGSLYDYLNRNIVTVAGMIKLALSIASGLAHLHMEIVGTQGKPAIAHRDIKSKNILVKKCETCAIADLGLAVKHDSILNTIDIPQNPKVGTKRYMAPEMLDDTMNVNIFESFKRADIYSVGLVYWEIARRCSVGGIVEEYQLPYYDMVPSDPSIEEMRKVVCDQKFRPSIPNQWQSCEALRVMGRIMRECWYANGAARLTALRIKKTISQLCVKEDCKA",effect of deletion or mutation on GREM1–ACVR1C interaction,ACVR1C,significantly abrogated the GREM1–ACVR1C interaction
same,effect of deletion or mutation on GREM1–ACVR1C interaction,ACVR1C; listed as AA101 mutant (M3) of ACVR1C,impaired
